Measurements taken from PMC7398576.

Experiments:
p53 wild type = p53 wild type (UniProt P04637 1-393); experiment: pull-down
FLAG-p53 = FLAG-p53 (UniProt P04637 1-393); experiment: pull-down
Sequence of FLAG-p53 (P04637 whole entry): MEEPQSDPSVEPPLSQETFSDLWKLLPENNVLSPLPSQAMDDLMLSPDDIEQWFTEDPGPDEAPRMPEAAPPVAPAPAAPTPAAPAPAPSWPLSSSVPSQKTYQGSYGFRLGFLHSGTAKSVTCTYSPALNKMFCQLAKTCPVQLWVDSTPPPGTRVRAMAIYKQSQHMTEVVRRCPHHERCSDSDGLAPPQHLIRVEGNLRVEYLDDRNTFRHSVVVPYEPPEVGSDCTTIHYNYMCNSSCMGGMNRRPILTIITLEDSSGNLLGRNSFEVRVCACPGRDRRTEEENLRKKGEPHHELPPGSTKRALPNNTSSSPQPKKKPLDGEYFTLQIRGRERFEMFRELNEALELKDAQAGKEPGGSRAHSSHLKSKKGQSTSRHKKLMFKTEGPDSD

Sequence of p53 wild type (P04637 whole entry): as above

B1: biotinylated p53-site oligonucleotide (dsDNA)
DNA 1: TCGAGAGGCATGTCTAGGCATGTCTC
DNA 2: GAGACATGCCTAGACATGCCTCTCGA
Q: What does the source list for B1?
A: binding result (p53 wild type): binds; binding result (FLAG-p53): binds
